Results from PMC8876628 (Toxins, 2022).

B1: TT110 human monoclonal antibody (antibody, V domains shown)
VH: QVQLMQSGAEVQKPGASVKVSCQASGFTLNNYYIHWLRQAPGQGFEWMGIFNPSSGTRTYAQKFQGRISMTADASTTTLYMELSGLTSEDAGVYFCARIGGSTYGRLMTYYFDHWGQGTVVAVSS
VL: EVVLTQSPVTLSVSPGGRGTLSCRASRSISTTLAWYQQKPGQAPRLLIYGASTRATGIPARFTGSGSGTEFTLTISSLQSEDFAVYYCQQYNDWPVTFGQGTQVEVK
notes: also called humAb TT110
B2: TT104 human monoclonal antibody (antibody, V domains shown)
VH: QLQLQESGPGLVRPSETLSLTCSVSDDSMGSSTYYWAWIRQPPGKGLEWIGNVYYNGVTYYNSSLESRLTLSIDPSKNQFSLILSSVTAADTAVYYCARQADNWFDPWGQGTLVTVSS
VL: EIMMTQSPATLSVSPGERATLSCRASQSVGSDLAWYQQKPGQAPRLLIYGASYRATGIPARFSGGGSGTEFTLTISSMQSEDFAVYYCQQYYNWPPYTFGQGTKVEIK
notes: also called humAb TT104

Biological target: Tetanus neurotoxin (Clostridium tetani, UniProt P04958)
Sequence (P04958 whole entry): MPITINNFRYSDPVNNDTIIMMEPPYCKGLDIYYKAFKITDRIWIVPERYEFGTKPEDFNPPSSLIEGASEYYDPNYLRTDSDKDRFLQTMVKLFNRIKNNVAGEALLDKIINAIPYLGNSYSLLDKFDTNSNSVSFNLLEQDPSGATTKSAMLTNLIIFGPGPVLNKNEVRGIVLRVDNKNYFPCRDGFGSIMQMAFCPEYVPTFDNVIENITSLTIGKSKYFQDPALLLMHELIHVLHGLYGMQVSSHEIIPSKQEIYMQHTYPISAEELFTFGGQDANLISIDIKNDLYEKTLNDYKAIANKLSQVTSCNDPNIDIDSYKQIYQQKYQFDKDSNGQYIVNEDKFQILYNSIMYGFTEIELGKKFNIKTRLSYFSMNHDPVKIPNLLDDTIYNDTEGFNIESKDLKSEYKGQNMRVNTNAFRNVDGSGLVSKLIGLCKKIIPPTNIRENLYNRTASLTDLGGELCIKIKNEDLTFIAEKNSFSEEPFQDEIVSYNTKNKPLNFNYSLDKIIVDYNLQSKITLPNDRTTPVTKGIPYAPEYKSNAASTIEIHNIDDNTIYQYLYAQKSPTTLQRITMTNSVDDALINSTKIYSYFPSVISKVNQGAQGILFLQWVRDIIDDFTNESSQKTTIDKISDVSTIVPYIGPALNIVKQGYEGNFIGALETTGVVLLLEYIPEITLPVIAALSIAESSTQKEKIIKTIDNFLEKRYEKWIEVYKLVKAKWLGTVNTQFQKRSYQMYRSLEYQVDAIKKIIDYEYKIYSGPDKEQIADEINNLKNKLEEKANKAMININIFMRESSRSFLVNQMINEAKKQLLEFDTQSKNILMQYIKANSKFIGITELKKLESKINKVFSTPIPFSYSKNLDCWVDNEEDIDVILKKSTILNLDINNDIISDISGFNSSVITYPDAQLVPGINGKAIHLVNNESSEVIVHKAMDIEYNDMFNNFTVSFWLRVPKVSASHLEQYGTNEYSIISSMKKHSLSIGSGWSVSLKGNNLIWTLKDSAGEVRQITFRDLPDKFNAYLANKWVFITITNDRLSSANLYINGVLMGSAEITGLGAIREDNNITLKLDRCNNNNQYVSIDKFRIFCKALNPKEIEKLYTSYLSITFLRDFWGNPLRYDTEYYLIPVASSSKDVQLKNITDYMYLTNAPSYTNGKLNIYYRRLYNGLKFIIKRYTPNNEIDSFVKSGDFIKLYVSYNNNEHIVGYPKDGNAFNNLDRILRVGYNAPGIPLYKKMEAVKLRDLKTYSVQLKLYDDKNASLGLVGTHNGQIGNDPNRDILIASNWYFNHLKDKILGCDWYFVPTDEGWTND
Assay: cryo-EM structure; epitopes of TT104 and TT110 on TeNT determined via cryo-EM
Conditions: both partners purified

Binder | binding result
B1 | binds
B2 | binds
